Publication PMC4933465 (The Journal of Biological Chemistry, 2016)
Substitutions are numbered along the chain they refer to. In names and notes the source's numbering stands.

B1: CCL7 (ligand)
chain: not shown
notes: chemokine CCL7; source: E. coli, purified
B2: CCL19 (ligand, UniProt Q99731 22-98, looked up)
chain: GTNDAEDCCLSVTQKPIPGYIVRNFHYLLIKDGCRVPAVVFTTLRGRQLCAPPDQPWVERIIQRLQRTSAKMKRRSS
notes: chemokine CCL19; source: E. coli, purified
B3: CCL21 (ligand, UniProt O00585 24-134, looked up)
chain: SDGGAQDCCLKYSQRKIPAKVVRSYRKQEPSLGCSIPAILFLPRKRSQAELCADPKELWVQQLMQHLDKTPSPQKPAQGCRKDRGASKTGKKGKGSKGCKRTERSQTPKGP
notes: chemokine CCL21; source: E. coli, purified
B4: CCL27 (ligand, UniProt Q9Y4X3 25-112, looked up)
chain: FLLPPSTACCTQLYRKPLSDKLLRKVIQVELQEADGDCHLQAFVLHLAQRSICIHPQNPSLSQWFEHQERKLHGTLPKLNFGMLRKMG
notes: chemokine CCL27; source: E. coli, purified
B5: CCL27 K25A (ligand, UniProt Q9Y4X3 25-112, looked up)
chain: B4 chain with K25A
notes: chemokine CCL27 with K25A; also called CCL27 K25A mutant; source: E. coli, purified
B6: CCL5 (ligand, UniProt P13501 24-91, looked up)
chain: SPYSSDTTPCCFAYIARPLPRAHIKEYFYTSGKCSNPAVVFVTRKNRQVCANPEKKWVREYINSLEMS
notes: chemokine CCL5; source: E. coli, purified
B7: Link_TSG6_T (K55A/K69A/K76A) (domain or fragment, human)
chain: GVYHREARSGKYKLTYAEAAAVCEFEGGHLATYAQLEAARAIGFHVCAAGWMAKGRVGYPIVKPGPNCGFGKTGIIDYGIRLNRSERWDAYCYNPHAK
notes: Link module of human TSG-6 with three lysines changed to alanine; residues numbered as in the pre-protein
B8: CXCL11 (ligand, UniProt O14625 22-94, looked up)
chain: FPMFKRGRCLCIGPGVKAVKVADIEKASIMYPSNNCDKIEVIITLKENKGQRCLNPKSKQARLIIKKVERKNF
notes: chemokine CXCL11; CXCL11 is not in the methods' list of chemokines made in E. coli
B9: Biotinylated CCL21 (ligand, UniProt O00585 24-134, looked up)
chain: B3 chain
modifications: biotin
notes: chemokine CCL21, biotinylated; also called biotinylated chemokine CCL21; source: E. coli, purified

Key:
Details in all cases: both partners purified
[1] = target: T1, Link_TSG6 (recombinant Link module from human TSG-6) (human, UniProt P98066 36-133); experiment: SPR; Link_TSG6 amine-coupled to a C1 chip (800–1000 RU), chemokine as analyte; BIAcore 3000; 10 mM HEPES, 150 mM NaCl, 0.05% Tween 20, pH 7.4; 40 μl/min; 1:1 Langmuir model; apparent affinities
T1 construct: Link module of human TSG-6 (TNF-stimulated gene/protein 6); residues numbered as in the pre-protein; also called TSG-6 Link module

[2] = target: T1, Link_TSG6 (recombinant Link module from …); experiment: as above; remark: listed apart in the source
CXCL11 = target: B8; experiment: ELISA; solid phase competition: chemokine (250 nM) coated on MaxiSorp plates, biotinylated heparin (25 ng/well) with Link_TSG6_T (0–1000 nM); 10 mM NaOAc, 150 mM NaCl, 2% Tween 20, pH 6.0, room temperature, 4 h; bound heparin detected
CCL7 = target: B1; experiment: as above
CCL2 = target: T2, CCL2 (UniProt P13500 24-99); experiment: as above
T2 construct: chemokine CCL2; source: E. coli, purified

CCL19 = target: B2; experiment: as above
[3] = target: T1, Link_TSG6 (recombinant Link module from …); experiment: plate binding assay on a collagen-coated surface, labeled streptavidin detection; wells coated with type I collagen (100 μg/ml); biotinylated chemokine (10, 50 or 200 nM) alone or pre-incubated 30 min at 37 °C with different molar ratios of Link_TSG6 in cPBS, then 1 h on the surface; streptavidin IRDye 800CW

T2 sequence (P13500 24-99): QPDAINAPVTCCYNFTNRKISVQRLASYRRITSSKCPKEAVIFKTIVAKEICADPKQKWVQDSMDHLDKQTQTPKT
Sequence of CCL7 (P80098 24-99): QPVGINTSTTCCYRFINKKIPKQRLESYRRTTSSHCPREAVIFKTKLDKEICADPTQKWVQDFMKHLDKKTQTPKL

| Binder | Kd [1] | koff [1] | kon [1] | also measured |
| --- | --- | --- | --- | --- |
| B1 | 18.4 nM | 0.0016 s⁻¹ | 87000 M⁻¹ s⁻¹ |  |
| B2 | 17.5 nM | 0.0028 s⁻¹ | 160000 M⁻¹ s⁻¹ |  |
| B3 | 4.8 nM | 0.0034 s⁻¹ | 710000 M⁻¹ s⁻¹ |  |
| B4 | 85.2 nM | 0.0023 s⁻¹ | 27000 M⁻¹ s⁻¹ |  |
| B5 | 753 nM | 0.0061 s⁻¹ | 8100 M⁻¹ s⁻¹ |  |
| B6 |  |  |  | binding result [2]: binds |
| B7 |  |  |  | IC50 (CXCL11): 168 nM; IC50 (CCL7): 159 nM; IC50 (CCL2): 84 nM; IC50 (CCL19): 55 nM |
| B8 | 5.2 nM | 0.0013 s⁻¹ | 250000 M⁻¹ s⁻¹ |  |
| B9 |  |  |  | binding result [3]: binds |
